Experimental findings from US20180140742A1 are described below.

Assay [1] addresses oriented collagen tube (Porcine Skin Collagen type I) (porcine). Briefly: depletion assay: tube immersed in fusion protein solution in phosphate buffer; bound = added minus amount left in the supernatant.
Assay [2] shares this target. Briefly: depletion assay: tube immersed in fusion protein solution in phosphate buffer; bound = added minus amount left in the supernatant; told of the other added amounts.

bFGF-PKD-CBD fusion protein had a binding amount (when 10 µg added) in assay [1] of 9 µg. Moreover, the protein binding rate in assay [2] was determined as 90%.
